Assay results published in paper PMC9543379, “Dihydroxy‐Acid Dehydratases From Pathogenic Bacteria: Emerging Drug Targets to Combat Antibiotic Resistance” (Chemistry (Weinheim an Der Bergstrasse, Germany), 2022).

Assays:
CC(C)(O)C(O)C(=O)O [1] = system: T1, CC(C)(O)C(O)C(=O)O; experiment: Michaelis-Menten kinetics (Km), DNPH assay; type: biochemical, Campylobacter jejuni; conditions: [4Fe-4S] cluster, Mg2+ active site
T1 construct: hexa-histidine tag at the N-terminal, pET-28a

CC(C)(O)C(O)C(=O)O [2] = system: T1, CC(C)(O)C(O)C(=O)O; experiment: Michaelis-Menten kinetics (Km), DNPH assay; type: biochemical, Staphylococcus aureus; conditions: [4Fe-4S] cluster, Mg2+ active site

Row | Substance | Km (CC(C)(O)C(O)C(=O)O [1]) [µM] | kcat (CC(C)(O)C(O)C(=O)O [1]) [s⁻¹] | kcat/Km (CC(C)(O)C(O)C(=O)O [1]) [M⁻¹ s⁻¹] | Km (CC(C)(O)C(O)C(=O)O [2]) [µM] | kcat (CC(C)(O)C(O)C(=O)O [2]) [s⁻¹] | kcat/Km (CC(C)(O)C(O)C(=O)O [2]) [M⁻¹ s⁻¹]
1 | CjDHAD (dihydroxy-acid dehydratase) (Campylobacter jejuni subsp. jejuni NCTC 11168 = ATCC 700819) | 820 | 6.5 | 7930 | – | – | –
2 | SaDHAD (dihydroxy-acid dehydratase) (Staphylococcus aureus subsp. aureus NCTC 8325) | – | – | – | 1100 | 2.1 | 1910
